According to PMC11552376, “Specific binding between Arabidopsis thaliana phytochrome-interacting factor 3 (AtPIF3) bHLH and G-box originated prior to embryophyte emergence” (BMC Plant Biology, 2024):

Tests used:
AtPIF3-bHLH R356A = molecular target: T1, AtPIF3-bHLH R356A (Arabidopsis thaliana, UniProt O80536 340-397, R356A); assay: ITC; error exceeds value; ITC: 30 mM HEPES, 125 mM NaCl, pH 7.5, 25 C, 400 uM protein into 40 uM DNA; fEMSA: 30 mM HEPES, 500 mM NaCl, pH 7.4, on ice 30 min, 3 uM probe, 10% native gel in 0.5x TBE at 4 C; conditions: protein: recombinant; tags: C-terminal His6; chain copies: 2; blunt
T1 sequence: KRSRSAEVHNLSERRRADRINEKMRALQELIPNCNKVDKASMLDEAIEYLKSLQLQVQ

AtPIF3-bHLH H348A = molecular target: T2, AtPIF3-bHLH H348A (Arabidopsis thaliana, UniProt O80536 340-397, H348A); assay: ITC; binding curve unsaturated; ITC: 30 mM HEPES, 125 mM NaCl, pH 7.5, 25 C, 400 uM protein into 40 uM DNA; fEMSA: 30 mM HEPES, 500 mM NaCl, pH 7.4, on ice 30 min, 3 uM probe, 10% native gel in 0.5x TBE at 4 C; conditions: protein: recombinant; tags: C-terminal His6; chain copies: 2; blunt
T2 sequence: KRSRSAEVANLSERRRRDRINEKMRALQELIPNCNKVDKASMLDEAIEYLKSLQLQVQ

B1: G-box (PER2), ITC (dsDNA)
DNA 1: AGGAACACGTGACCC
DNA 2: GGGTCACGTGTTCCT
Work on B1 yielded a Kd (AtPIF3-bHLH R356A) of 106 ± 112 µM and a Kd (AtPIF3-bHLH H348A) of 3.39 ± 0.275 µM.
